Drawing on paper PMC6561178, “Caulobacter crescentus Hfq structure reveals a conserved mechanism of RNA annealing regulation”, this text covers stoichiometry N and Kd for eight molecules.

For series [1], the target named is Caulobacter crescentus Hfq (Caulobacter crescentus). Put plainly: crystal structure; hanging-drop vapor diffusion; Cc Hfq at 7 mg/mL; 0.2 M sodium thiocyanate, 17% PEG 3350; 2.15 Å; four hexamers in the asymmetric unit, space group P4_(3).
Series [2] has as its target T1, EcCc Hfq (Escherichia coli / Caulobacter …, UniProt P0A6X3 1-67+B8GW92:71-82, internal_change). Put plainly: EMSA; Hill n 1.0; EMSA: 34 mM Tris-HCl pH 7.5, 50 mM NaCl, 50 mM KCl, 50 mM NH4Cl, 11.4 mM EDTA, 12% glycerol, 30 C, 30 min, ~1 nM 32P-RNA, Kd in Hfq6; anisotropy: 10 mM Tris-HCl. To be noted: protein: recombinant; tags: untagged; chain copies: 6; label: 32P; folded. (In EMSA bound probe runs differently from free probe, usually more slowly.)

Series [3] concerns the target T2, Cc78 (Caulobacter crescentus NA1000, UniProt B8GW92 1-78, del79-82).
T2 sequence: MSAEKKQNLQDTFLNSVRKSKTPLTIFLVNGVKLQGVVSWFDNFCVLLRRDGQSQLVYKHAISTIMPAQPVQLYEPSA
Put plainly: EMSA; Hill n 1.6; EMSA: 34 mM Tris-HCl pH 7.5, 50 mM NaCl, 50 mM KCl, 50 mM NH4Cl, 11.4 mM EDTA, 12% glycerol, 30 C, 30 min, ~1 nM 32P-RNA, Kd in Hfq6; anisotropy: 10 mM Tris-HCl. To be noted: protein: recombinant; tags: untagged after self-cleaved intein; chain copies: 6; label: 32P; folded.

For series [4], the target named is T3, Ec Hfq (Hfq102) (Escherichia coli, UniProt P0A6X3 1-102). In words: EMSA; Hill n 13; EMSA: 34 mM Tris-HCl pH 7.5, 50 mM NaCl, 50 mM KCl, 50 mM NH4Cl, 11.4 mM EDTA, 12% glycerol, 30 C, 30 min, ~1 nM 32P-RNA, Kd in Hfq6; anisotropy: 10 mM Tris-HCl. To be noted: protein: recombinant; tags: untagged; chain copies: 6; label: 32P; folded.
In series [5] the target is T4, Ec65 (Escherichia coli, UniProt P0A6X3 1-65, del66-102). Put plainly: EMSA; Hill n 3.7; EMSA: 34 mM Tris-HCl pH 7.5, 50 mM NaCl, 50 mM KCl, 50 mM NH4Cl, 11.4 mM EDTA, 12% glycerol, 30 C, 30 min, ~1 nM 32P-RNA, Kd in Hfq6; anisotropy: 10 mM Tris-HCl. Particulars: protein: recombinant; tags: untagged; chain copies: 6; label: 32P; folded.
In series [6] the target is T3, Ec Hfq (Hfq102). Put plainly: EMSA; Hill n 4.4; EMSA: 34 mM Tris-HCl pH 7.5, 50 mM NaCl, 50 mM KCl, 50 mM NH4Cl, 11.4 mM EDTA, 12% glycerol, 30 C, 30 min, ~1 nM 32P-RNA, Kd in Hfq6; anisotropy: 10 mM Tris-HCl. To be noted: protein: recombinant; tags: untagged; chain copies: 6; label: 32P.
Series [7] addresses T3, Ec Hfq (Hfq102). Put plainly: EMSA; Hill n 2.2; EMSA: 34 mM Tris-HCl pH 7.5, 50 mM NaCl, 50 mM KCl, 50 mM NH4Cl, 11.4 mM EDTA, 12% glycerol, 30 C, 30 min, ~1 nM 32P-RNA, Kd in Hfq6; anisotropy: 10 mM Tris-HCl. To be noted: protein: recombinant; tags: untagged; chain copies: 6; label: 32P.
Series [8] deals with T2, Cc78. In words: EMSA; Hill n 5.5; EMSA: 34 mM Tris-HCl pH 7.5, 50 mM NaCl, 50 mM KCl, 50 mM NH4Cl, 11.4 mM EDTA, 12% glycerol, 30 C, 30 min, ~1 nM 32P-RNA, Kd in Hfq6; anisotropy: 10 mM Tris-HCl. Particulars: protein: recombinant; tags: untagged after self-cleaved intein; chain copies: 6; label: 32P; stem-loops.
The target of series [9] is T1, EcCc Hfq. In words: EMSA; Hill n 4.5; EMSA: 34 mM Tris-HCl pH 7.5, 50 mM NaCl, 50 mM KCl, 50 mM NH4Cl, 11.4 mM EDTA, 12% glycerol, 30 C, 30 min, ~1 nM 32P-RNA, Kd in Hfq6; anisotropy: 10 mM Tris-HCl. To be noted: protein: recombinant; tags: untagged; chain copies: 6; label: 32P; stem-loops.
Series [10] deals with T4, Ec65. Put plainly: EMSA; Hill n 3.1; EMSA: 34 mM Tris-HCl pH 7.5, 50 mM NaCl, 50 mM KCl, 50 mM NH4Cl, 11.4 mM EDTA, 12% glycerol, 30 C, 30 min, ~1 nM 32P-RNA, Kd in Hfq6; anisotropy: 10 mM Tris-HCl. To be noted: protein: recombinant; tags: untagged; chain copies: 6; label: 32P; stem-loops.
Series [11] addresses T3, Ec Hfq (Hfq102). In words: EMSA; Hill n 4.1; EMSA: 34 mM Tris-HCl pH 7.5, 50 mM NaCl, 50 mM KCl, 50 mM NH4Cl, 11.4 mM EDTA, 12% glycerol, 30 C, 30 min, ~1 nM 32P-RNA, Kd in Hfq6; anisotropy: 10 mM Tris-HCl. To be noted: protein: recombinant; tags: untagged; chain copies: 6; label: 32P; stem-loops.
The target in series [12] is T4, Ec65. In words: EMSA; Hill n 1.7; EMSA: 34 mM Tris-HCl pH 7.5, 50 mM NaCl, 50 mM KCl, 50 mM NH4Cl, 11.4 mM EDTA, 12% glycerol, 30 C, 30 min, ~1 nM 32P-RNA, Kd in Hfq6; anisotropy: 10 mM Tris-HCl. To be noted: protein: recombinant; tags: untagged; chain copies: 6; label: 32P; stem-loops.
Series [13] addresses T2, Cc78. Put plainly: EMSA; Hill n 1.2; EMSA: 34 mM Tris-HCl pH 7.5, 50 mM NaCl, 50 mM KCl, 50 mM NH4Cl, 11.4 mM EDTA, 12% glycerol, 30 C, 30 min, ~1 nM 32P-RNA, Kd in Hfq6; anisotropy: 10 mM Tris-HCl. To be noted: protein: recombinant; tags: untagged after self-cleaved intein; chain copies: 6; label: 32P; stem-loops.
Series [14] concerns the target T3, Ec Hfq (Hfq102). Put plainly: EMSA; Hill n 1; Tris-glycine gel; EMSA: 34 mM Tris-HCl pH 7.5, 50 mM NaCl, 50 mM KCl, 50 mM NH4Cl, 11.4 mM EDTA, 12% glycerol, 30 C, 30 min, ~1 nM 32P-RNA, Kd in Hfq6; anisotropy: 10 mM Tris-HCl. To be noted: protein: recombinant; tags: untagged; chain copies: 6; label: 32P; stem-loops.
The target of series [15] is T1, EcCc Hfq. In words: EMSA; Hill n 1.8; EMSA: 34 mM Tris-HCl pH 7.5, 50 mM NaCl, 50 mM KCl, 50 mM NH4Cl, 11.4 mM EDTA, 12% glycerol, 30 C, 30 min, ~1 nM 32P-RNA, Kd in Hfq6; anisotropy: 10 mM Tris-HCl. To be noted: protein: recombinant; tags: untagged; chain copies: 6; label: 32P; stem-loops.
In series [16] the target is T1, EcCc Hfq. Put plainly: EMSA; Hill n 30.2; EMSA: 34 mM Tris-HCl pH 7.5, 50 mM NaCl, 50 mM KCl, 50 mM NH4Cl, 11.4 mM EDTA, 12% glycerol, 30 C, 30 min, ~1 nM 32P-RNA, Kd in Hfq6; anisotropy: 10 mM Tris-HCl. Particulars: protein: recombinant; tags: untagged; chain copies: 6; label: 32P; stem-loops.
For series [17], the target named is T3, Ec Hfq (Hfq102). In words: EMSA; Hill n 10.1; EMSA: 34 mM Tris-HCl pH 7.5, 50 mM NaCl, 50 mM KCl, 50 mM NH4Cl, 11.4 mM EDTA, 12% glycerol, 30 C, 30 min, ~1 nM 32P-RNA, Kd in Hfq6; anisotropy: 10 mM Tris-HCl. Particulars: protein: recombinant; tags: untagged; chain copies: 6; label: 32P; stem-loops.
In series [18] the target is T4, Ec65. In words: EMSA; Hill n 1.0; EMSA: 34 mM Tris-HCl pH 7.5, 50 mM NaCl, 50 mM KCl, 50 mM NH4Cl, 11.4 mM EDTA, 12% glycerol, 30 C, 30 min, ~1 nM 32P-RNA, Kd in Hfq6; anisotropy: 10 mM Tris-HCl. Particulars: protein: recombinant; tags: untagged; chain copies: 6; label: 32P; stem-loops.
Series [19] addresses T2, Cc78. Put plainly: EMSA; Hill n 3.5; EMSA: 34 mM Tris-HCl pH 7.5, 50 mM NaCl, 50 mM KCl, 50 mM NH4Cl, 11.4 mM EDTA, 12% glycerol, 30 C, 30 min, ~1 nM 32P-RNA, Kd in Hfq6; anisotropy: 10 mM Tris-HCl. To be noted: protein: recombinant; tags: untagged after self-cleaved intein; chain copies: 6; label: 32P; stem-loops.
The target in series [20] is T2, Cc78. In words: EMSA; Hill n 2.5; EMSA: 34 mM Tris-HCl pH 7.5, 50 mM NaCl, 50 mM KCl, 50 mM NH4Cl, 11.4 mM EDTA, 12% glycerol, 30 C, 30 min, ~1 nM 32P-RNA, Kd in Hfq6; anisotropy: 10 mM Tris-HCl. To be noted: protein: recombinant; tags: untagged after self-cleaved intein; chain copies: 6; label: 32P; stem-loops.
The target in series [21] is T1, EcCc Hfq. In words: EMSA; Hill n 8.7; EMSA: 34 mM Tris-HCl pH 7.5, 50 mM NaCl, 50 mM KCl, 50 mM NH4Cl, 11.4 mM EDTA, 12% glycerol, 30 C, 30 min, ~1 nM 32P-RNA, Kd in Hfq6; anisotropy: 10 mM Tris-HCl. To be noted: protein: recombinant; tags: untagged; chain copies: 6; label: 32P; stem-loops.
The target in series [22] is T4, Ec65. In words: EMSA; Hill n 2.4; EMSA: 34 mM Tris-HCl pH 7.5, 50 mM NaCl, 50 mM KCl, 50 mM NH4Cl, 11.4 mM EDTA, 12% glycerol, 30 C, 30 min, ~1 nM 32P-RNA, Kd in Hfq6; anisotropy: 10 mM Tris-HCl. To be noted: protein: recombinant; tags: untagged; chain copies: 6; label: 32P; stem-loops.
The target of series [23] is T3, Ec Hfq (Hfq102). In words: EMSA; Hill n 11.9; EMSA: 34 mM Tris-HCl pH 7.5, 50 mM NaCl, 50 mM KCl, 50 mM NH4Cl, 11.4 mM EDTA, 12% glycerol, 30 C, 30 min, ~1 nM 32P-RNA, Kd in Hfq6; anisotropy: 10 mM Tris-HCl. To be noted: protein: recombinant; tags: untagged; chain copies: 6; label: 32P; stem-loops.

Usually stoichiometry N stands for a count of units in the complex or per binding partner. Turning to “Caulobacter crescentus Hfq (natural protein)”, the stoichiometry N in series [1] is 6.

B1: RydC (structured_RNA)
RNA: GGCUUCCGAUGUAGACCCGUAUUCUUCGCCUGUACCACGGGUCGGUUUUAGUACAGGCGUUUUCUU
Usually Kd stands for the constant that tells how readily two partners part at equilibrium. On to B1, for which the Kd with EcCc Hfq [2] worked out at 237 ± 34 nM; with Cc78 [3], 167 ± 11 nM; in the series with Ec Hfq (Hfq102) [4], 22.1 ± 0.2 nM; in the series with Ec65 [5], 12.3 ± 0.4 nM.

B2: hns (structured_RNA)
RNA: GAACAAACCACCCCAAUAUAAGUUUGAGAUUACUACAAUGAGCGAAGCACUUAAAAUUCUGAACAACAUCCGUACUCUUCGUGCGCAGGCAAGAGAAUGUACACUUGAAACGCUGGAAGAA
With B2, in the series with Ec Hfq (Hfq102) [6], the Kd turned out to be 19.7 ± 0.4 nM.

B3: cfa (structured_RNA)
RNA: GGUUGUUAAAGCUACGAUAAAUAUUAUGUUUUUACGGGGACAGGAUCGUUCCCGACUCACUAUGGAUAGUCAUUUCGGCAAGGGUUCCUCCUUUCCCUCUGUUCUACGUCGGAUUAUAGACUCGCGGUUUUUUCUGCGAGAUUUCUCACAAAGCCCAAAAAGCGUCUACGCUGUUUUAAGGUUCUGAUCACCGACCAGUGAUGGAGAAACUAUGAGUUCAUCGUGUAUAGAAGAAGUCAGUGUACCGGAUGACAAC
As for B3, the Kd with Ec Hfq (Hfq102) [7] is 19 ± 0.5 nM.

B4: RybB (structured_RNA)
RNA: GGCCACUGCUUUUCUUUGAUGUCCCCAUUUUGUGGAGCCCAUCAACCCCGCCAUUUCGGUUCAAGGUUGAUGGGUUUUUU
With B4, the Kd with Cc78 [8] came out at 68.1 ± 1.9 nM; with EcCc Hfq [9], 37.3 ± 6.2 nM; in the series with Ec65 [10], 27.1 ± 0.9 nM; with Ec Hfq (Hfq102) [11] it was 21.5 ± 2 nM.

B5: R133 (structured_RNA)
RNA: GGAGCCCUUUCGGGCGUUUCCUCCCAAUGACUCGGCCGCCCUCUUCUCCUGGAGGGCGGCCGUUCUUUU
For B5, the Kd with Ec65 [12] came out at 21.6 ± 1.3 nM; with Cc78 [13] it was 242 ± 17 nM; with Ec Hfq (Hfq102) [14] it was 14.7 ± 1.3 nM; with EcCc Hfq [15], 232 ± 46 nM.

B6: ChiX (structured_RNA)
RNA: GGGACACCGUCGCUUAAAGUGACGGCAUAAUAAUAAAAAAAUGAAAUUCCUCUUUGACGGGCCAAUAGCGAUAUUGGCCAUUUUUUU
B6: the Kd with EcCc Hfq [16] was determined as 35.8 ± 0.4 nM; with Ec Hfq (Hfq102) [17] it was 20.3 ± 0.4 nM; with Ec65 [18] it was 95 ± 27 nM; with Cc78 [19], 32.4 ± 0.4 nM.

B7: DsrA (structured_RNA)
RNA: GGGAACACAUCAGAUUUCCUGGUGUAACGAAUUUUUUAAGUGCUUCUUGCUUAAGCAAGUUUCAUCCCGACCCCCUCAGGGUCGGGAUUUUUUU
For B7, the Kd turned out to be 62.2 ± 4.4 nM with Cc78 [20], 42.5 ± 1 nM with EcCc Hfq [21], 12.6 ± 1.9 nM in the series with Ec65 [22] and 21.1 ± 0.3 nM with Ec Hfq (Hfq102) [23].
